The values that follow come from patent publication US9192657B2.

In this assay the target is T1, PAR-1 N-terminal tail peptide (TR33-62) (artificial).
T1 sequence (peptide): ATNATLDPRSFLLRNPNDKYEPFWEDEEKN

B1: KKK191-193AAA-APC (enzyme)
chain: ANSFLEELRHSSLERECIEEICDFEEAKEIFQNVDDTLAFWSKHVDGDQCLVLPLEHPCASLCCGHGTCIDGIGSFSCDCRSGWEGRFCQREVSFLNCSLDNGGCTHYCLEEVGWRRCSCAPGYKLGDDLLQCHPAVKFPCGRPWKRMEKKRSHLKRDTEDQEDQVDPRLIDGKMTRRGDSPWQVVLLDSAAALACGAVLIHPSWVLTAAHCMDESKKLLVRLGEYDLRRWEKWELDLDIKEVFVHPNYSKSTTDNDIALLHLAQPATLSQTIVPICLPDSGLAERELNQAGQETLVTGWGYHSSREKEAKRNRTFVLNFIKIPVVPHNECSEVMSNMVSENMLCAGILGDRQDACEGDSGGPMVASFHGTWFLVGLVSWGEGCGLLHNYGVYTKVSRYLDWIHGHIRDKEAPQKSWAP
With B1, the PAR-1 peptide (TR33-62) cleavage (% rwt-APC), catalytic efficiency by HPLC is 88 % rwt-APC.
